Molecular target: the molecule itself
Assay: crystal structure; PleD 5 mg/mL with 0.5 µM c-di-GMP and 5 mM ppGpp or pppGpp; sitting-drop vapor diffusion at 19°C; space group P6(1)22, 4 molecules per asymmetric unit; 2.9 Å (ppGpp) and 3 Å (pppGpp)

B1: PleD diguanylate cyclase from Caulobacter crescentus (enzyme)
chain: MSARILVVDDIEANVRLLEAKLTAEYYEVSTAMDGPTALAMAARDLPDIILLDVMMPGMDGFTVCRKLKDDPTTRHIPVVLITALDGRGDRIQGLESGASDFLTKPIDDVMLFARVRSLTRFKLVIDELRQREASGRRMGVIAGAAARLDGLGGRVLIVDDNERQAQRVAAELGVEHRPVIESDPEKAKISAGGPVDLVIVNAAAKNFDGLRFTAALRSEERTRQLPVLAMVDPDDRGRMVKALEIGVNDILSRPIDPQELSARVKTQIQRKRYTDYLRNNLDHSLELAVTDQLTGLHNRRYMTGQLDSLVKRATLGGDPVSALLIDIDFFKKINDTFGHDIGDEVLREFALRLASNVRAIDLPCRYGGEEFVVIMPDTALADALRIAERIRMHVSGSPFTVAHGREMLNVTISIGVSATAGEGDTPEALLKRADEGVYQAKASGRNAVVGKAA
notes: PleD, response regulator and diguanylate cyclase of Caulobacter crescentus (receiver domain D1, adaptor domain D2, DGC domain); expressed from pET11b-pleD; In the crystals each monomer carries two c-di-GMP at the I-site, and one (p)ppGpp and a Mg2+ in the active site; also called PleDCC; source: E. coli BL21(DE3), purified (Ni-NTA, SEC)
B1: binds.

— article doi:10.1101/2025.08.22.671821, “Cross-regulation of (p)ppGpp and c-di-GMP pathways controls a cell-cycle transition” (bioRxiv, 2025)
